According to publication PMC12065904:

Molecular target: rabbit skeletal muscle actin, polymerized in vitro (F-actin) (rabbit) (UniProt P68135)
Assay: co-sedimentation; F-actin cosedimentation: CaVβ proteins incubated with polymerized actin in polymerization buffer (0.2 mM CaCl2, 50 mM KCl, 2 mM MgCl2, 1 mM ATP, 5 mM HEPES pH 8.0), 25 µM phalloidin; 150,000 × g, 20 min, 4 °C; densitometry of pellet over total; also at 30–150 mM NaCl and after 30 or 90 min of incubation

Substance: CaVβ4 R482X (truncated, naturally occurring variant of human CaVβ4 linked to juvenile myoclonic epilepsy) (from UniProt O00305-1 1-431) (domain or fragment)
- percent cosedimented with actin: > 80%
